In data set [1] the target is Vibrio cholerae ParE2 (VcParE2), wild type, C-terminally histidine-tagged (Vibrio cholerae). Briefly: BLI. For orientation: BLI is a label-free optical method that tracks binding on a fibre tip over time.
Data set [2] deals with DNA gyrase (GyrA+GyrB, full Gyrase);VcParE2 (Escherichia coli;Vibrio cholerae) (UniProt P0AES4+P0AES6+Q9KMJ0). In words: EMSA. For orientation: Mobility shift assays separate free from complexed probe on a gel.
UniProt P0AES4, sequence (P0AES4 whole entry, one chain of several): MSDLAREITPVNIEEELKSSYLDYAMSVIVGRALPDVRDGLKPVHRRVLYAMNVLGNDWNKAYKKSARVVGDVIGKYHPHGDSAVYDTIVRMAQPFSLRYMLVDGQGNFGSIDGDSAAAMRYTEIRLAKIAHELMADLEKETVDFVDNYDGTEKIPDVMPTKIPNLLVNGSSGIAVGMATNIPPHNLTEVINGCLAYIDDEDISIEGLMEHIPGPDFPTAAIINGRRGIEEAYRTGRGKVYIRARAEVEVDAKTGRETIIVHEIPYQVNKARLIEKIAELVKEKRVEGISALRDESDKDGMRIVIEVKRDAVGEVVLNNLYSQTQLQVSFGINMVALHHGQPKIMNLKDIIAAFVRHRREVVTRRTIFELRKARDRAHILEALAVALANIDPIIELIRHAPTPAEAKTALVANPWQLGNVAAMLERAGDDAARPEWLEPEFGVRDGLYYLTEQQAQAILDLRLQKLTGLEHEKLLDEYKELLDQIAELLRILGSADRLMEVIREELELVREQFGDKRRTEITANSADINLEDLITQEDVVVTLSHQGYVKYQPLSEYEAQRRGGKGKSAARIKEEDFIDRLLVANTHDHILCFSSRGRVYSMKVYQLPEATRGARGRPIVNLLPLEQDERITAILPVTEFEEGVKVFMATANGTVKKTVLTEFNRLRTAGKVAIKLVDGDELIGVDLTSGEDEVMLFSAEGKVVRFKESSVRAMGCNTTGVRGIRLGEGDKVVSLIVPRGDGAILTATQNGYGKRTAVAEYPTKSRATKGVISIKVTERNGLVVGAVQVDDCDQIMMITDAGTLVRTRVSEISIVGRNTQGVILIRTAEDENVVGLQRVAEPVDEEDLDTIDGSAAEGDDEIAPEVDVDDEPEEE

In turn, “VcParD2 peptide E41-S60 (N-terminal helix of the C-terminal domain)” had a dissociation constant Kd in data set [1] of 778 nM. This counts as sub-micromolar.
Regarding “GCTGCTCATCATGGTTTGTGAGCAGTCAGTTTGCGGGAGGTGCGGGAAAATCTGGGGTTATGCTATTTGAGTACTGGAGAAAGAAAGTGAAAGGAAGATAAAACGGGATTCATACACCGTTAAATACCGGTTTAAAAATCCCGTGGCGCGTTTTAAAAAATCTGTGCGGCTGATTTTATGCCTGATTCTGTTTATTGCCTCAGAGCGGCGCTGACGCGTTTTCTGATGGCATCAAAAATTTCCTGTTCCCCGGTCTTATCCAGCCCCATATAAGGACGCGCAGGAA (double strand) [286-bp Mu strong gyrase site fragment]”, the binding entry in data set [2] is recorded as “binds”.

The Kd is a measure of binding affinity in units of concentration. High values mean lower affinity, low ones higher affinity.

The values above are taken from doi:10.1101/2025.07.24.666505.
